Columns and labels:
[1] = target: human CaMKIIα W403L hub (human) (UniProt Q9UQM7); test: mass photometry
mass photometry = target: the molecule itself; test: mass photometry
SAXS = target: the molecule itself; test: SAXS

Molecule	stoichiometry N [1]	stoichiometry N (mass photometry)	stoichiometry N (SAXS)
human CaMKIIα W403L hub (from UniProt Q9UQM7 345-475) (domain or fragment)	12		
human CaMKIIα WT hub (calcium/calmodulin-dependent protein kinase II subtype alpha, hub domain) (domain or fragment, UniProt Q9UQM7 345-475, looked up) VRKQEIIKVTEQLIEAISNGDFESYTKMCDPGMTAFEPEALGNLVEGLDFHRFYFENLWSRNSKPVHTTILNPHIHLMGDESACIAYIRITQYLDAGGIPRTAQSEETRVWHRRDGKWQIVHFHRSGAPSV		24	12

Reference: article doi:10.1101/2024.03.26.586665 (bioRxiv, 2024)
